The record followed here is the supplement of paper PMC7877785.

The data set can be described thus: self-splicing fitness, log relative to wild type (ln ratio); higher = more splicing; Tetrahymena group I intron in knt gene, E. coli kanamycin selection, DiMSum; sequences stand for … in CUCUCU…GGAGGGAAAAGUUAUCAGGCAUGCACCUGGUAGCUAGUCUUUAAACCAAUAGAUUGCAUCGGUUUAAAAGGCAAGACCGUCAAAUUGCGGGAAAGGGGUCAACAGCCGUUCAGUACCAAGUCUCAGGGGAAACUUUGAGAUGGCCUUGCAAAGGGUAUGGUAAUAAGCUGACGGACAUGGUCCUAACCACGCAGCCAAGUCCUAAGUCAACAGAUCUUCUGUUGAUAUGGAUGCAGUUCACAGACUAAAUGUCGGUCGGGGAAGAUGUAUUCUUCUCAUAAGAUAUAGUCGGACCUCUCCUUAAUGGGAGCUAGCGGAUGAAGUGAUGCAACACUGGAGCCGCUGGGAACUAAUUUGUAUGCGAAAGUAUAUUGAUUAGUUUUGGAGUACUCGUGGUCG
A digest of the protocol: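 Six replicate transformations of E. coli BL21(DE3) with a pET-22b(+) library were grown overnight at 37°C or 30°C. The library randomised all eight P1ex-region intron nucleotides, the intron lying in the knt kanamycin-resistance gene, and plates were LB agar with or without 25 μg/mL kanamycin plus 100 μg/mL carbenicillin, 50 μM IPTG and 0.2% rhamnose. Pooled colonies were amplicon-sequenced on an Illumina HiSeq 2500, and fitness is the DiMSum error-weighted combination of wild-type-normalised replicate fold changes, kanamycin versus none.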

± gives the uncertainty stated by the source.

Take CGUCAGCAAUAUUACGGACU: the “self-splicing fitness (ln)” value by setting is: (30 °C) -0.14 ± 0.09; (37 °C) 0.0847 ± 0.089.

Consider GCUAAGCAAUAUUACGAUUG, for which the “self-splicing fitness (ln)” value (30 °C) was -2.78 ± 0.11 and the “self-splicing fitness (ln)” value (37 °C) was -1.17 ± 0.12. For the sequence CUCGAGCAAUAUUACGCACG, the “self-splicing fitness (ln)” value (30 °C) is -1.6 ± 0.23. On to AAAAAGCAAUAUUACGAUUU, for which the “self-splicing fitness (ln)” value runs as follows: (30 °C) 0.149 ± 0.074; (37 °C) 0.324 ± 0.095. In the same order, the values of ACUUAGCAAUAUUACGAAAG are -2.69 ± 0.19 and -0.697 ± 0.17. Turning to GGUUAGCAAUAUUACGUUCA, the “self-splicing fitness (ln)” value reads like this: (30 °C) 0.228 ± 0.14; (37 °C) -0.557 ± 0.13. On to AUGGAGCAAUAUUACGCAAA, for which the “self-splicing fitness (ln)” value (30 °C) was -2.21 ± 0.36. Regarding CGUCAGCAAUAUUACGAGUC, the “self-splicing fitness (ln)” value (37 °C) was -1.18 ± 0.18. Take CCUCAGCAAUAUUACGUCAC: the “self-splicing fitness (ln)” value (30 °C) was -3.97 ± 0.27 and the “self-splicing fitness (ln)” value (37 °C) was -2.36 ± 0.26.

On to UUUGAGCAAUAUUACGUUAG, for which the “self-splicing fitness (ln)” value (37 °C) is -1.73 ± 0.35. CUGAAGCAAUAUUACGCGGU: the “self-splicing fitness (ln)” value is -1.86 ± 0.08 (30 °C) and -0.746 ± 0.081 (37 °C). With CACAAGCAAUAUUACGUUAU, the “self-splicing fitness (ln)” value is, setting by setting: (30 °C) -2.95 ± 0.098; (37 °C) -2.7 ± 0.11. UGAGAGCAAUAUUACGAGAA: where the note is “37 °C”, the “self-splicing fitness (ln)” value was -1.39 ± 0.43. As for AAGGAGCAAUAUUACGCUAG, the “self-splicing fitness (ln)” value (30 °C) was -2.17 ± 0.2. For the sequence CGAUAGCAAUAUUACGGACG, the “self-splicing fitness (ln)” value by setting is: (30 °C) -1 ± 0.085; (37 °C) -0.734 ± 0.11. In the same order, the values of UAGAAGCAAUAUUACGGUAA are -1.64 ± 0.091 and -0.669 ± 0.073. CCGGAGCAAUAUUACGAAUC: under “30 °C”, the “self-splicing fitness (ln)” value was -4.01 ± 0.46.

With CCCGAGCAAUAUUACGCUGA, the “self-splicing fitness (ln)” value (30 °C) is -3.44 ± 0.35 and the “self-splicing fitness (ln)” value (37 °C) was -2.26 ± 0.2. On to CGGGAGCAAUAUUACGCACG, for which the “self-splicing fitness (ln)” value (30 °C) is -1.33 ± 0.31. For the sequence CUGCAGCAAUAUUACGCACA, the “self-splicing fitness (ln)” value runs as follows: (30 °C) -2.82 ± 0.19; (37 °C) -1.48 ± 0.19. In the case of GACAAGCAAUAUUACGAGAG, the “self-splicing fitness (ln)” value runs as follows: (30 °C) -3.18 ± 0.17; (37 °C) -2.96 ± 0.21.

Take ACAUAGCAAUAUUACGAAGC: the “self-splicing fitness (ln)” value (37 °C) was -1.85 ± 0.42. Turning to GAAUAGCAAUAUUACGGUGG, the “self-splicing fitness (ln)” value by setting is: (30 °C) -3.06 ± 0.24; (37 °C) -1.08 ± 0.12.

Take UUCCAGCAAUAUUACGCAGA: the “self-splicing fitness (ln)” value (30 °C) is -2.09 ± 0.21 and the “self-splicing fitness (ln)” value (37 °C) is -1.32 ± 0.16.

For AUCGAGCAAUAUUACGAUAG, the “self-splicing fitness (ln)” value is, setting by setting: (30 °C) -3.68 ± 0.22; (37 °C) -3.23 ± 0.2. With UUCCAGCAAUAUUACGUAGC, the “self-splicing fitness (ln)” value reads like this: (30 °C) -3.54 ± 0.17; (37 °C) -1.51 ± 0.2. In the same order, the values of ACUGAGCAAUAUUACGAUCA are -2.89 ± 0.43 and -2.9 ± 0.34. As for CGGCAGCAAUAUUACGUGGC, the “self-splicing fitness (ln)” value by setting is: (30 °C) -3.19 ± 0.33; (37 °C) -2.02 ± 0.23. In the same order, the values of ACGAAGCAAUAUUACGUACA are -2.13 ± 0.13 and -1.06 ± 0.12.

Regarding GUCCAGCAAUAUUACGUGUC, the “self-splicing fitness (ln)” value is -0.424 ± 0.057 (30 °C) and 0.0485 ± 0.068 (37 °C). Consider UGUCAGCAAUAUUACGGCCU, for which the “self-splicing fitness (ln)” value by setting is: (30 °C) -0.452 ± 0.23; (37 °C) 0.483 ± 0.3. In the same order, the values of GAUAAGCAAUAUUACGCGCC are -1.76 ± 0.17 and -1.31 ± 0.26.

Consider GAGAAGCAAUAUUACGCGCG, for which the “self-splicing fitness (ln)” value (30 °C) is -0.394 ± 0.14 and the “self-splicing fitness (ln)” value (37 °C) was found to be 0.218 ± 0.16.

For the sequence CAACAGCAAUAUUACGAUGC, the “self-splicing fitness (ln)” value runs as follows: (30 °C) -3.08 ± 0.15; (37 °C) -2.01 ± 0.16. As for UUUGAGCAAUAUUACGCAAU, the “self-splicing fitness (ln)” value (30 °C) was -3.33 ± 0.48 and the “self-splicing fitness (ln)” value (37 °C) was -1.5 ± 0.46.

As for AUCUAGCAAUAUUACGGACA, the “self-splicing fitness (ln)” value is -0.495 ± 0.14 (30 °C) and 0.224 ± 0.13 (37 °C).

On to GACUAGCAAUAUUACGGGCA, for which the “self-splicing fitness (ln)” value was -0.911 ± 0.072 (30 °C) and 0.2 ± 0.085 (37 °C). Regarding AAUUAGCAAUAUUACGGGGG, the “self-splicing fitness (ln)” value reads like this: (30 °C) -2.91 ± 0.15; (37 °C) -2.9 ± 0.27. In the same order, the values of CAUGAGCAAUAUUACGUACU are -3.25 ± 0.18 and -2.59 ± 0.18.

As to AAUCAGCAAUAUUACGCGUG, the “self-splicing fitness (ln)” value reads like this: (30 °C) -0.227 ± 0.074; (37 °C) 0.204 ± 0.085. On to GUGGAGCAAUAUUACGAGGA, for which the “self-splicing fitness (ln)” value by setting is: (30 °C) -3.96 ± 0.31; (37 °C) -1.75 ± 0.19.
